Data on six molecules can be found in US20210139548A1 (published 2021).

*1 amine or outer side, *2 acyl side, *3 side chain or, on linkers, in order; H or OH if unused. Side-chain parts run from the residue outwards. The star is where a group is joined. C18 diacid = O=C(O)CCCCCCCCCCCCCCCCC(=O)*; γGlu = O=C(O)[C@H](CCC(=O)[*:2])N[*:1]; Isovaleryl = CC(C)CC(=O)*; AEEA = NCCOCCOCC(=O)O

To fix the notation:
T1: human neuropeptide Y2 receptor (human, UniProt P49146 1-381)
T1 construct: whole, on cells; also called hNPY2 receptor; hNPY2-R
T1 sequence (looked up): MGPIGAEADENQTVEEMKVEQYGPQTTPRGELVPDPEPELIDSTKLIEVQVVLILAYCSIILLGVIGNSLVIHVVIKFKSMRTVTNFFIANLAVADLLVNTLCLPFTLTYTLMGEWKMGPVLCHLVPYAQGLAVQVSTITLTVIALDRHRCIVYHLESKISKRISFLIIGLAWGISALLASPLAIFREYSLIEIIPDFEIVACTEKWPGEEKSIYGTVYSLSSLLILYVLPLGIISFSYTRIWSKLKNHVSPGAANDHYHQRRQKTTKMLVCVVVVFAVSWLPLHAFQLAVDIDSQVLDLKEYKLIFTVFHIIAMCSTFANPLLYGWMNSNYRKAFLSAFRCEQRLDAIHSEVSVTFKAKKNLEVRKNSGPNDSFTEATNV

B1: Compound 100 (peptide)
peptide: Isovaleryl-APAK([AEEA-AEEA-γGlu-C18 diacid])PPEDASPEELQRYYVSLRHYYNWLTRQRY-NH2
SMILES: CC(C)CC(=O)N[C@@H](C)C(=O)N1CCC[C@H]1C(=O)N[C@@H](C)C(=O)N[C@@H](CCCCNC(=O)COCCOCCNC(=O)COCCOCCNC(=O)CC[C@H](NC(=O)CCCCCCCCCCCCCCCCC(=O)O)C(=O)O)C(=O)N1CCC[C@H]1C(=O)N1CCC[C@H]1C(=O)N[C@@H](CCC(=O)O)C(=O)N[C@@H](CC(=O)O)C(=O)N[C@@H](C)C(=O)N[C@@H](CO)C(=O)N1CCC[C@H]1C(=O)N[C@@H](CCC(=O)O)C(=O)N[C@@H](CCC(=O)O)C(=O)N[C@@H](CC(C)C)C(=O)N[C@@H](CCC(N)=O)C(=O)N[C@@H](CCCNC(=N)N)C(=O)N[C@@H](Cc1ccc(O)cc1)C(=O)N[C@@H](Cc1ccc(O)cc1)C(=O)N[C@H](C(=O)N[C@@H](CO)C(=O)N[C@@H](CC(C)C)C(=O)N[C@@H](CCCNC(=N)N)C(=O)N[C@@H](Cc1c[nH]cn1)C(=O)N[C@@H](Cc1ccc(O)cc1)C(=O)N[C@@H](Cc1ccc(O)cc1)C(=O)N[C@@H](CC(N)=O)C(=O)N[C@@H](Cc1c[nH]c2ccccc12)C(=O)N[C@@H](CC(C)C)C(=O)N[C@H](C(=O)N[C@@H](CCCNC(=N)N)C(=O)N[C@@H](CCC(N)=O)C(=O)N[C@@H](CCCNC(=N)N)C(=O)N[C@@H](Cc1ccc(O)cc1)C(N)=O)[C@@H](C)O)C(C)C
B2: Compound 108 (peptide)
peptide: Isovaleryl-APEK([AEEA-AEEA-γGlu-C18 diacid])PEEDASPEELQRYYVELRHYYNWLTRQRY-NH2
SMILES: CC(C)CC(=O)N[C@@H](C)C(=O)N1CCC[C@H]1C(=O)N[C@@H](CCC(=O)O)C(=O)N[C@@H](CCCCNC(=O)COCCOCCNC(=O)COCCOCCNC(=O)CC[C@H](NC(=O)CCCCCCCCCCCCCCCCC(=O)O)C(=O)O)C(=O)N1CCC[C@H]1C(=O)N[C@@H](CCC(=O)O)C(=O)N[C@@H](CCC(=O)O)C(=O)N[C@@H](CC(=O)O)C(=O)N[C@@H](C)C(=O)N[C@@H](CO)C(=O)N1CCC[C@H]1C(=O)N[C@@H](CCC(=O)O)C(=O)N[C@@H](CCC(=O)O)C(=O)N[C@@H](CC(C)C)C(=O)N[C@@H](CCC(N)=O)C(=O)N[C@@H](CCCNC(=N)N)C(=O)N[C@@H](Cc1ccc(O)cc1)C(=O)N[C@@H](Cc1ccc(O)cc1)C(=O)N[C@H](C(=O)N[C@@H](CCC(=O)O)C(=O)N[C@@H](CC(C)C)C(=O)N[C@@H](CCCNC(=N)N)C(=O)N[C@@H](Cc1c[nH]cn1)C(=O)N[C@@H](Cc1ccc(O)cc1)C(=O)N[C@@H](Cc1ccc(O)cc1)C(=O)N[C@@H](CC(N)=O)C(=O)N[C@@H](Cc1c[nH]c2ccccc12)C(=O)N[C@@H](CC(C)C)C(=O)N[C@H](C(=O)N[C@@H](CCCNC(=N)N)C(=O)N[C@@H](CCC(N)=O)C(=O)N[C@@H](CCCNC(=N)N)C(=O)N[C@@H](Cc1ccc(O)cc1)C(N)=O)[C@@H](C)O)C(C)C
B3: Compound 102 (peptide)
peptide: Isovaleryl-APEK([AEEA-AEEA-γGlu-C18 diacid])PEEDASPEELQRYYVTLRHYYNWLTRQRY-NH2
SMILES: CC(C)CC(=O)N[C@@H](C)C(=O)N1CCC[C@H]1C(=O)N[C@@H](CCC(=O)O)C(=O)N[C@@H](CCCCNC(=O)COCCOCCNC(=O)COCCOCCNC(=O)CC[C@H](NC(=O)CCCCCCCCCCCCCCCCC(=O)O)C(=O)O)C(=O)N1CCC[C@H]1C(=O)N[C@@H](CCC(=O)O)C(=O)N[C@@H](CCC(=O)O)C(=O)N[C@@H](CC(=O)O)C(=O)N[C@@H](C)C(=O)N[C@@H](CO)C(=O)N1CCC[C@H]1C(=O)N[C@@H](CCC(=O)O)C(=O)N[C@@H](CCC(=O)O)C(=O)N[C@@H](CC(C)C)C(=O)N[C@@H](CCC(N)=O)C(=O)N[C@@H](CCCNC(=N)N)C(=O)N[C@@H](Cc1ccc(O)cc1)C(=O)N[C@@H](Cc1ccc(O)cc1)C(=O)N[C@H](C(=O)N[C@H](C(=O)N[C@@H](CC(C)C)C(=O)N[C@@H](CCCNC(=N)N)C(=O)N[C@@H](Cc1c[nH]cn1)C(=O)N[C@@H](Cc1ccc(O)cc1)C(=O)N[C@@H](Cc1ccc(O)cc1)C(=O)N[C@@H](CC(N)=O)C(=O)N[C@@H](Cc1c[nH]c2ccccc12)C(=O)N[C@@H](CC(C)C)C(=O)N[C@H](C(=O)N[C@@H](CCCNC(=N)N)C(=O)N[C@@H](CCC(N)=O)C(=O)N[C@@H](CCCNC(=N)N)C(=O)N[C@@H](Cc1ccc(O)cc1)C(N)=O)[C@@H](C)O)[C@@H](C)O)C(C)C
B4: Compound 107 (peptide)
peptide: Isovaleryl-APEK([AEEA-AEEA-γGlu-C18 diacid])PEEDASPEELQKYYVALRHYYNWLTRQRY-NH2
SMILES: CC(C)CC(=O)N[C@@H](C)C(=O)N1CCC[C@H]1C(=O)N[C@@H](CCC(=O)O)C(=O)N[C@@H](CCCCNC(=O)COCCOCCNC(=O)COCCOCCNC(=O)CC[C@H](NC(=O)CCCCCCCCCCCCCCCCC(=O)O)C(=O)O)C(=O)N1CCC[C@H]1C(=O)N[C@@H](CCC(=O)O)C(=O)N[C@@H](CCC(=O)O)C(=O)N[C@@H](CC(=O)O)C(=O)N[C@@H](C)C(=O)N[C@@H](CO)C(=O)N1CCC[C@H]1C(=O)N[C@@H](CCC(=O)O)C(=O)N[C@@H](CCC(=O)O)C(=O)N[C@@H](CC(C)C)C(=O)N[C@@H](CCC(N)=O)C(=O)N[C@@H](CCCCN)C(=O)N[C@@H](Cc1ccc(O)cc1)C(=O)N[C@@H](Cc1ccc(O)cc1)C(=O)N[C@H](C(=O)N[C@@H](C)C(=O)N[C@@H](CC(C)C)C(=O)N[C@@H](CCCNC(=N)N)C(=O)N[C@@H](Cc1c[nH]cn1)C(=O)N[C@@H](Cc1ccc(O)cc1)C(=O)N[C@@H](Cc1ccc(O)cc1)C(=O)N[C@@H](CC(N)=O)C(=O)N[C@@H](Cc1c[nH]c2ccccc12)C(=O)N[C@@H](CC(C)C)C(=O)N[C@H](C(=O)N[C@@H](CCCNC(=N)N)C(=O)N[C@@H](CCC(N)=O)C(=O)N[C@@H](CCCNC(=N)N)C(=O)N[C@@H](Cc1ccc(O)cc1)C(N)=O)[C@@H](C)O)C(C)C
B5: Compound 101 (peptide)
peptide: Isovaleryl-APEK([AEEA-AEEA-γGlu-C18 diacid])PEEDATPEELQRYYVELRHYYNWLTRQRY-NH2
SMILES: CC(C)CC(=O)N[C@@H](C)C(=O)N1CCC[C@H]1C(=O)N[C@@H](CCC(=O)O)C(=O)N[C@@H](CCCCNC(=O)COCCOCCNC(=O)COCCOCCNC(=O)CC[C@H](NC(=O)CCCCCCCCCCCCCCCCC(=O)O)C(=O)O)C(=O)N1CCC[C@H]1C(=O)N[C@@H](CCC(=O)O)C(=O)N[C@@H](CCC(=O)O)C(=O)N[C@@H](CC(=O)O)C(=O)N[C@@H](C)C(=O)N[C@H](C(=O)N1CCC[C@H]1C(=O)N[C@@H](CCC(=O)O)C(=O)N[C@@H](CCC(=O)O)C(=O)N[C@@H](CC(C)C)C(=O)N[C@@H](CCC(N)=O)C(=O)N[C@@H](CCCNC(=N)N)C(=O)N[C@@H](Cc1ccc(O)cc1)C(=O)N[C@@H](Cc1ccc(O)cc1)C(=O)N[C@H](C(=O)N[C@@H](CCC(=O)O)C(=O)N[C@@H](CC(C)C)C(=O)N[C@@H](CCCNC(=N)N)C(=O)N[C@@H](Cc1c[nH]cn1)C(=O)N[C@@H](Cc1ccc(O)cc1)C(=O)N[C@@H](Cc1ccc(O)cc1)C(=O)N[C@@H](CC(N)=O)C(=O)N[C@@H](Cc1c[nH]c2ccccc12)C(=O)N[C@@H](CC(C)C)C(=O)N[C@H](C(=O)N[C@@H](CCCNC(=N)N)C(=O)N[C@@H](CCC(N)=O)C(=O)N[C@@H](CCCNC(=N)N)C(=O)N[C@@H](Cc1ccc(O)cc1)C(N)=O)[C@@H](C)O)C(C)C)[C@@H](C)O
B6: Compound 103 (peptide)
peptide: Isovaleryl-APAK([AEEA-AEEA-γGlu-C18 diacid])PEEDASEEELQRYYVSLRHYYNWLTRQRY-NH2
SMILES: CC(C)CC(=O)N[C@@H](C)C(=O)N1CCC[C@H]1C(=O)N[C@@H](C)C(=O)N[C@@H](CCCCNC(=O)COCCOCCNC(=O)COCCOCCNC(=O)CC[C@H](NC(=O)CCCCCCCCCCCCCCCCC(=O)O)C(=O)O)C(=O)N1CCC[C@H]1C(=O)N[C@@H](CCC(=O)O)C(=O)N[C@@H](CCC(=O)O)C(=O)N[C@@H](CC(=O)O)C(=O)N[C@@H](C)C(=O)N[C@@H](CO)C(=O)N[C@@H](CCC(=O)O)C(=O)N[C@@H](CCC(=O)O)C(=O)N[C@@H](CCC(=O)O)C(=O)N[C@@H](CC(C)C)C(=O)N[C@@H](CCC(N)=O)C(=O)N[C@@H](CCCNC(=N)N)C(=O)N[C@@H](Cc1ccc(O)cc1)C(=O)N[C@@H](Cc1ccc(O)cc1)C(=O)N[C@H](C(=O)N[C@@H](CO)C(=O)N[C@@H](CC(C)C)C(=O)N[C@@H](CCCNC(=N)N)C(=O)N[C@@H](Cc1c[nH]cn1)C(=O)N[C@@H](Cc1ccc(O)cc1)C(=O)N[C@@H](Cc1ccc(O)cc1)C(=O)N[C@@H](CC(N)=O)C(=O)N[C@@H](Cc1c[nH]c2ccccc12)C(=O)N[C@@H](CC(C)C)C(=O)N[C@H](C(=O)N[C@@H](CCCNC(=N)N)C(=O)N[C@@H](CCC(N)=O)C(=O)N[C@@H](CCCNC(=N)N)C(=O)N[C@@H](Cc1ccc(O)cc1)C(N)=O)[C@@H](C)O)C(C)C

For the test, the target named is T1, human neuropeptide Y2 receptor. The test is described as follows: radioligand competition (125I-PYY(1-36)), hNPY2R membranes. The essentials: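 Commercial human Y2 receptor membranes (0.5 μg protein/well) were incubated with peptide for 2 h at room temperature in 50 mM HEPES, 5 mM MgCl₂, 1 mM CaCl₂, pH 7.4, with 0.2% ovalbumin. Bound radioligand was separated on PEI-soaked GF/C filters and counted by scintillation, and IC₅₀ came from nonlinear sigmoidal regression.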
For orientation: Displacement assays read how much labelled ligand stays bound in the presence of the test substance.
In the case of B1, affinity was put at a Ki of 0.44 nM.

The molecule B2 had a Ki of 0.99 nM.

On to B3, for which the Ki came out at 0.87 nM.

Regarding B4, the inhibition constant Ki came to 1.1 nM.

With B5, the inhibition constant (Ki) is 3.29 nM.

For B6, the inhibitory constant (Ki) was 0.95 nM. This Ki is about 3.5-fold lower than that of the molecule before.

For orientation: Ki means the dissociation constant of the complex between target and ligand, obtained from inhibition or displacement. A higher Ki goes with lower affinity.
